Source: patent US20140004122A1, “METHODS FOR TREATING OR PREVENTING CHOLESTEROL RELATED DISORDERS” (AMGEN INC., priority 2011, published 2014)

How the values were obtained:
[1] = test system: human patient at risk of developing coronary heart disease; assay: Prevention of coronary heart disease (Example 18); type: in vivo; details: alone, concurrently or sequentially with a statin
Description: A human patient at risk of developing coronary heart disease is identified. […] At periodic times during the treatment, the human patient is monitored to determine whether the patient's total serum cholesterol level changes.

human PCSK9 = human PCSK9 (Homo sapiens, UniProt Q8NBP7); assay: BIAcore affinity analysis; type: binding; details: pH 7.4; read-out: KD hPCSK9
Procedure: Briefly, the surface plasmon resonance experiments were performed using Biacore 2000 optical biosensors (Biacore, GE Healthcare, Piscataway, N.J.). […] The concentration of PCSK9 protein was varied at 2 fold intervals (the analyte) and was injected over the immobilized antibody surface (at a flow rate of 100 μl/min for 1.5 minutes). Fresh HBS-P buffer (pH 7.4, 0.01 M Hepes, 0.15 M NaCl, 0.005% surfactant P-20, Biacore) supplemented with 0.01% BSA was used as binding buffer.
The binding signal obtained was proportional to the free PCSK9 in solution.
Antibody binding kinetic parameters including ka (association rate constant), kd (dissociation rate constant), and KD (dissociation equilibrium constant) were determined using the BIA evaluation 3.1 computer program (BIAcore, Inc. Piscataway, N.J.).

[2] = test system: human patient exhibiting symptoms of hypercholesterolemia; assay: Treatment of hypercholesterolemia (Example 17); type: in vivo; details: therapeutically effective amount
Description: At periodic times during the treatment, the human patient is monitored to determine whether the serum cholesterol level has declined.

[3] = Osmolality of 21B12 formulations; type: physicochemical
Description: In certain embodiments, the pharmaceutical formulation is isotonic with an osmolality ranging from between about 250 to about 350 miliosmol/kg, e.g., about 250 mOsm/kg, about 260 mOsm/kg, about 270 mOsm/kg, about 280 mOsm/kg, about 290 mOsm/kg, about 300 mOsm/kg, about 310 mOsm/kg, about 320 mOsm/kg, about 330 mOsm/kg, about 340 mOsm/kg, or about 350 mOsm/kg, and including all values in between. As used herein, “osmolality” is the measure of the ratio of solutes to volume fluid. In other words, it is the number of molecules and ions (or molecules) per kilogram of a solution. Osmolality may be measured on an analytical instrument called an osmometer, such as Advanced Instruments 2020 Multi-sample Osmometer, Norwood, Mass. The Advanced Instrumetns 2020 Multi-sample Osmometer measures osmolality by using the Freezing Point Depression method. The higher the osmolytes in a solution, the temperature in which it will freeze drops. Osmolality may also be measured using any other methods and in any other units known in the art such as linear extrapolation.

[4] = test system: patients from four studies described in Examples 22-25; assay: Aggregate data of the studies of Examples 22-25; type: in vivo, human
LDLR in HepG2 cells = assay: LDLR levels with statin and ABP in HepG2 cells (immunoblot); type: cell-based, human; details: HepG2 and HepG2-PCSK9 cells, with mevinolin, 48 hours
Procedure: HepG2 cells were seeded in DMEM with 10% fetal bovine serum (FBS) and grown to ˜90% confluence. The cells were treated with indicated amounts of mevinolin (a statin, Sigma) and PCSK9 ABPs (FIGS. 12A-12C) in DMEM with 3% FBS for 48 hours. Total cell lysates were prepared. […] of total proteins were separated by gel electrophoresis and transferred to PVDF membrane. Immunoblots were performed using rabbit anti-human LDL receptor antibody (Fitzgerald) or rabbit anti-human b-actin antibody. The enhanced chemiluminescent results are shown in the top panels of FIGS. 12A-12C. The intensity of the bands were quantified by ImageJ software and normalized by b-actin. The relative levels of LDLR are shown in the lower panels of FIGS. 12A-12C.

human PCSK9, sequence (Q8NBP7 153-692): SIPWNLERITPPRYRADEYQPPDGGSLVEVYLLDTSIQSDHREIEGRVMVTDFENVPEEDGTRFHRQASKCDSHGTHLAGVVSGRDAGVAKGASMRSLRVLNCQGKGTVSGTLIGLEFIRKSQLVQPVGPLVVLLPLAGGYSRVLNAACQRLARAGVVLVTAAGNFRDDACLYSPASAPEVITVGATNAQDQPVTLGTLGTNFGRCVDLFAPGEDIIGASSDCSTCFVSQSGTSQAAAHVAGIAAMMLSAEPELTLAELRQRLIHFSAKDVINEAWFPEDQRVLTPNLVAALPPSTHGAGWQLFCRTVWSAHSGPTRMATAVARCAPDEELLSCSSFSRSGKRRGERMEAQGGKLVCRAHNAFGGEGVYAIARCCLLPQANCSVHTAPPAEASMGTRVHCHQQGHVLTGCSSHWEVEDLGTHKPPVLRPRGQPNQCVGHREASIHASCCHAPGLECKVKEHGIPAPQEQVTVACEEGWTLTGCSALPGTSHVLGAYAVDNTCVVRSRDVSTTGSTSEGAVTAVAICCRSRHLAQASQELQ

B1: 21B12: human anti-PCSK9 monoclonal antibody; light/heavy variable region SEQ ID NO 23/49 (antibody, listed as Homo sapiens, V domains shown)
VH: QVQLVQSGAEVKKPGASVKVSCKASGYTLTSYGISWVRQAPGQGLEWMGWVSFYNGNTNYAQKLQGRGTMTTDPSTSTAYMELRSLRSDDTAVYYCARGYGMDVWGQGTTVTVSS
VL: QSALTQPASVSGSPGQSITISCTGTSSDVGGYNSVSWYQQHPGKAPKLMIYEVSNRPSGVSNRFSGSKSGNTASLTISGLQAEDEADYYCNSYTSTSMVFGGGTKLTVL
- serum cholesterol vs patients not receiving the treatment [1]: reduced serum cholesterol
- Kd (human PCSK9): 190 pM
- serum cholesterol levels vs patients not receiving the treatment [2]: reduced serum cholesterol levels
- Osmolality (mOsmol/kg) ([3]; 21B12 73 mg/mL, 10 mM Na acetate, pH 5.2 +3% proline): 253 mOsmol/kg
- Osmolality (mOsmol/kg) ([3]; 21B12 76 mg/mL, 10 mM Na acetate, pH 5.2): 53 mOsmol/kg
- Osmolality (mOsmol/kg) ([3]; 21B12 116 mg/mL, 10 mM sodium acetate, pH 4.8, 50 mM methionine + 2% benzyl alcohol): 329 mOsmol/kg
- Osmolality (mOsmol/kg) ([3]; 21B12 116 mg/mL, 10 mM sodium acetate, pH 4.8, 150 mM arginine): 241 mOsmol/kg
- Osmolality (mOsmol/kg) ([3]; 21B12 116 mg/mL, 10 mM sodium acetate, pH 4.8, 1.5% proline + 1% benzyl alcohol): 277 mOsmol/kg
- Osmolality (mOsmol/kg) ([3]; 21B12 116 mg/mL, 10 mM sodium acetate, pH 4.8, 2% proline + 1% benzyl alcohol): 313 mOsmol/kg
- Osmolality (mOsmol/kg) ([3]; 21B12 116 mg/mL, 10 mM sodium acetate, pH 4.8, no excipients): 72 mOsmol/kg
- Osmolality (mOsmol/kg) ([3]; 21B12 117 mg/mL, 10 mM Na acetate, pH 4.5): 59 mOsmol/kg
- Osmolality (mOsmol/kg) ([3]; 21B12 122 mg/mL, 10 mM Na acetate, pH 5.2 +3% proline): 274 mOsmol/kg
- Osmolality (mOsmol/kg) ([3]; 21B12 130 mg/mL, 10 mM Na acetate, pH 5): 59 mOsmol/kg
- Osmolality (mOsmol/kg) ([3]; 21B12 148 mg/mL, 10 mM Na acetate, pH 5.2 +3% proline): 301 mOsmol/kg
- Osmolality (mOsmol/kg) ([3]; 21B12 […], 10 mM Na acetate, pH 4): 59 mOsmol/kg
- Osmolality (mOsmol/kg) ([3]; 21B12 […], 10 mM Na acetate, pH 5.2 +150 mM NaCl): 346 mOsmol/kg
- Osmolality (mOsmol/kg) ([3]; 21B12 […], 10 mM Na acetate, pH 5.2 +3% proline): 252 mOsmol/kg
- Osmolality (mOsmol/kg) ([3]; 21B12 […], 10 mM Na acetate, pH 5.5): 64 mOsmol/kg
- Osmolality (mOsmol/kg) ([3]; 21B12 […], 10 mM Na acetate, pH 5.5 +150 mM methionine and 3% benzyl alcohol): 520 mOsmol/kg
- reduction from baseline in LDL-C at week 12 ([4]; 140 mg Q2W): ~60%
- reduction from baseline in LDL-C at week 12 ([4]; 420 mg Q4W): ~56%
- dose dependent reduction from baseline in ApoB ([4]; p values <0.001): 36-53%
- dose dependent reduction from baseline in non-HDL-C ([4]; p values <0.001): 36-53%
- dose dependent reduction from baseline in total cholesterol ([4]; p values <0.001): 25-37%
- LDLR levels compared with the 25A7.1 ABP (a non-neutralizer) (LDLR in HepG2 cells): greater increase in LDLR levels
